Key:
Test in all cases: cell-based or functional assay
[1] = biological target: HLA-A*02:01 presenting MAGE-A4 286-294 peptide (…) (human)
[2] = biological target: HLA-A*02:01 presenting FN1 2182-2190 peptide (…) (human)
[3] = biological target: HLA-A*02:01 presenting AOX1 795-803 peptide (…) (human)
[4] = biological target: HLA-A*02:01 presenting PSME2 145-153 peptide (…) (human)
[5] = biological target: HLA-A*02:01 presenting SHTN1 198-206 peptide (…) (human)
[6] = biological target: HLA-A*02:01 presenting SMIM11A 4-12 peptide (…) (human)
[7] = biological target: HLA-A*02:01 presenting RABGAP1L 408-416 peptide (…) (human)
[8] = biological target: HLA-A*02:01 presenting MRPL37 334-342 peptide (…) (human)
[9] = biological target: HLA-A*02:01 presenting PLEKHH2 790-798 peptide (…) (human)
[10] = biological target: HLA-A*02:01 presenting NBAS 2063-2071 peptide (…) (human)
[11] = biological target: HLA-A*02:01 presenting TEP1 2156-2164 peptide (…) (human)
[12] = biological target: HLA-A*02:01 presenting HEATR5A 1925-1933 peptide (…) (human)

Fold Activation, NF-κB luciferase, Jurkat/NF-κB Luc + IM-9 [1]: 1.8 fold | Fold Activation, NF-κB luciferase, Jurkat/NF-κB Luc + U266 [1]: 0.9 fold | EC50 (M), Jurkat/NF-κB-Luc reporter with pulsed T2 cells [2]: > 2e-08 M | Fold change, Jurkat/NF-κB-Luc reporter with pulsed T2 cells [2]: 1 fold | EC50 (M), Jurkat/NF-κB-Luc reporter with pulsed T2 cells [3]: 3.3e-10 M | Fold change, Jurkat/NF-κB-Luc reporter with pulsed T2 cells [3]: 40.4 fold | EC50 (M), Jurkat/NF-κB-Luc reporter with pulsed T2 cells [4]: > 2e-08 M | Fold change, Jurkat/NF-κB-Luc reporter with pulsed T2 cells [4]: 1 fold | EC50 (M), Jurkat/NF-κB-Luc reporter with pulsed T2 cells [5]: 3.5e-09 M | Fold change, Jurkat/NF-κB-Luc reporter with pulsed T2 cells [5]: 75.3 fold | EC50 (M), Jurkat/NF-κB-Luc reporter with pulsed T2 cells [6]: > 2e-08 M | Fold change, Jurkat/NF-κB-Luc reporter with pulsed T2 cells [6]: 1.2 fold | EC50 (M), Jurkat/NF-κB-Luc reporter with pulsed T2 cells [7]: > 2e-08 M | Fold change, Jurkat/NF-κB-Luc reporter with pulsed T2 cells [7]: 1.1 fold | EC50 (M), Jurkat/NF-κB-Luc reporter with pulsed T2 cells [8]: > 2e-08 M | Fold change, Jurkat/NF-κB-Luc reporter with pulsed T2 cells [8]: 1.2 fold | EC50 (M), Jurkat/NF-κB-Luc reporter with pulsed T2 cells [9]: > 2e-08 M | Fold change, Jurkat/NF-κB-Luc reporter with pulsed T2 cells [9]: 1.9 fold | EC50 (M), Jurkat/NF-κB-Luc reporter with pulsed T2 cells [10]: > 2e-08 M | Fold change, Jurkat/NF-κB-Luc reporter with pulsed T2 cells [10]: 1.6 fold | EC50 (M), Jurkat/NF-κB-Luc reporter with pulsed T2 cells [11]: > 2e-08 M | Fold change, Jurkat/NF-κB-Luc reporter with pulsed T2 cells [11]: 1.9 fold | EC50 (M), Jurkat/NF-κB-Luc reporter with pulsed T2 cells [12]: > 2e-08 M | Fold change, Jurkat/NF-κB-Luc reporter with pulsed T2 cells [12]: 2.1 fold
B1: bsAb6043 (bispecific antibody, V domains shown)
VH 1: QVQLVESGGGLVKPGGSLRLSCAASGFTFSEYYLTWIRQAPGKGLDWIAYISSSGYNIYYADSVKDRFTISRDNGKNSLFLQMNNLRAEDTAVYFCAREGVTDGMDVWGQGTTVTVSS
VH 2: EVQLVESGGGLVQPGRSLRLSCAASGFTFDDYSMHWVRQAPGKGLEWVSGISWNSGSKGYADSVKGRFTISRDNAKNSLYLQMNSLRAEDTALYYCAKYGSGYGKFYHYGLDVWGQGTTVTVSS
VL: DIQMTQSPSSLSASVGDRVTITCRASQSIDTFLNWYQQKPGKVPKLLIYAASNLESGVPSRFSGSGSGTVFTLTISRLQPEDFATYYCQQSYSIPPITFGQGTRVEIK
notes: Only variable regions are tied to the bispecific; also called MAGE-A4×CD3 (7221G) bispecific antibody

From US20240226163A1 (Regeneron, published 2024)
